Patent publication US20230321189

Target: tropomyosin-receptor kinase B-full-length (TrkB-FL), endogenous rat, Q63604
Sequence (Q63604 32-821): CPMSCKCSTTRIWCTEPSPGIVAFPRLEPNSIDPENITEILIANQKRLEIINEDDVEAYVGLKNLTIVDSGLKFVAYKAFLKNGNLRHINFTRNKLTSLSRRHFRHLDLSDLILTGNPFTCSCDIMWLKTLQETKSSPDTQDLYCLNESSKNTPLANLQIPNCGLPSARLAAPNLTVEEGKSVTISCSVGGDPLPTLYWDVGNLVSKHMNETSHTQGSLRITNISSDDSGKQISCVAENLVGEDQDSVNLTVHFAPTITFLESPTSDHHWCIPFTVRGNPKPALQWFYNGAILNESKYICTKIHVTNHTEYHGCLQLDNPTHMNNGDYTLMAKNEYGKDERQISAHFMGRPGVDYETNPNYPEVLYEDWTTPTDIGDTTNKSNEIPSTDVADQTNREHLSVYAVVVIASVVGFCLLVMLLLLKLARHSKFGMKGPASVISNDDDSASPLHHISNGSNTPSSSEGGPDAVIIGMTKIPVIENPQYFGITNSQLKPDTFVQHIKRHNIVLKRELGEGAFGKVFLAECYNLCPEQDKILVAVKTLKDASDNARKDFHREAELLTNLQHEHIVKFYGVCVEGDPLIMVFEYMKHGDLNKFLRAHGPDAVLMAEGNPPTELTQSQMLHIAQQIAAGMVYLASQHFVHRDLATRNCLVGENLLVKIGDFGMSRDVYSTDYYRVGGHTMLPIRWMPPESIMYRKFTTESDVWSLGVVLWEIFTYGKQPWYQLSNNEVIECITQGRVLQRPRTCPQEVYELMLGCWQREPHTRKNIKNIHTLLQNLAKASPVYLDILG

B1: purified rat m-calpain (protein)
chain: MAGIAMKLAKDREAAEGLGSHERAIKYLNQDYETLRNECLEAGALFQDPSFPALPSSLGFKELGPYSSKTRGIEWKRPTEICADPQFIIGGATRTDICQGALGDCWLLAAIASLTLNEEILARVVPLDQSFQENYAGIFHFQFWQYGEWVEVVVDDRLPTKDGELLFVHSAEGSEFWSALLEKAYAKINGCYEALSGGATTEGFEDFTGGIAEWYELRKPPPNLFKIIQKALEKGSLLGCSIDITSAADSEAVTYQKLVKGHAYSVTGAEEVESSGSLQKLIRIRNPWGQVEWTGKWNDNCPSWNTVDPEVRANLTERQEDGEFWMSFSDFLRHYSRLEICNLTPDTLTCDSYKKWKLTKMDGNWRRGSTAGGCRNYPNTFWMNPQYLIKLEEEDEDDEDGERGCTFLVGLIQKHRRRQRKMGEDMHTIGFGIYEVPEELTGQTNIHLSKNFFLTTRARERSDTFINLREVLNRFKLPPGEYVLVPSTFEPHKNGDFCIRVFSEKKADYQTVDDEIEANIEEIEANEEDIGDGFRRLFAQLAGEDAEISAFELQTILRRVLAKREDIKSDGFSIETCKIMVDMLDEDGSGKLGLKEFYILWTKIQKYQKIYREIDVDRSGTMNSYEMRKALEEAGFKLPCQLHQVIVARFADDELIIDFDNFVRCLVRLEILFKIFKQLDPENTGTIQLDLISWLSFSVL
TrkB-FL protein levels and TrkB-ICD formation in DIV8 neuronal cultures lysate (western blot, enzyme cleavage): decrease of TrkB-FL protein levels with concomitant TrkB-ICD formation when both exogenous m-calpain (1 or 2 EU) and CaCl2 (2 mM) were added | TrkB-FL protein levels and TrkB-ICD formation in adult rat brain cortex homogenate (western blot, enzyme cleavage): decrease of TrkB-FL protein levels with concomitant TrkB-ICD formation when both exogenous m-calpain (1 or 2 enzymatic units, EU) and CaCl2 (2 mM) were added
